In patent US20240190983A1 (JULIUS MAXIMILIANS UNIVERSIT T W RZBURG, published 2024):

T1: Extracellular domain of TNFR1 with a GPI anchor domain (UniProt P19438 30-211)
T1 construct: extracellular domain; not shown: GPI anchor domain
T1 sequence (looked up): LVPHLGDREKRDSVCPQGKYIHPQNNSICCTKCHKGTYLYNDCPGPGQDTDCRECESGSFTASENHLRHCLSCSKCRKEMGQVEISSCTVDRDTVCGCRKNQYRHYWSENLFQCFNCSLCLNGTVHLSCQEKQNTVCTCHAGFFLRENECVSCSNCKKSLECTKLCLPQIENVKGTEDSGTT

T2: Murine TNFR2 (mouse, UniProt P25119 23-474)
T2 construct: Expressed on transiently transfected HEK293 cells; also called mouse TNFR2; TNFR2(mu)
T2 sequence: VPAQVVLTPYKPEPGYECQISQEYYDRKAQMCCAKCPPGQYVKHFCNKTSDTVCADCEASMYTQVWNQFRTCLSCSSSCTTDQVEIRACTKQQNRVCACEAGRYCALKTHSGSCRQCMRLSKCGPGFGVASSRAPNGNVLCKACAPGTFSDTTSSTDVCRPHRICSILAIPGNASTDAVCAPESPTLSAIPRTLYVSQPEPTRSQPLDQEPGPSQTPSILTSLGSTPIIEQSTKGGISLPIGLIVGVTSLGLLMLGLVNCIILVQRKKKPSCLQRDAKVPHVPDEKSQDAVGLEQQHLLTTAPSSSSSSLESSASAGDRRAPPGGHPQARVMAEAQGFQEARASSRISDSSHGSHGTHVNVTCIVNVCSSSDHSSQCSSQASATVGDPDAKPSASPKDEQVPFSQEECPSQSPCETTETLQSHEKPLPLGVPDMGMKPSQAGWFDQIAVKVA

T3: Human TNFR2 (human, UniProt P20333 23-461)
T3 construct: On cells: HeLa-TNFR2, HT1080-Bcl2-TNFR2, transiently transfected HEK293; endogenous on Kym-1 cells; also called huTNFR2; TNFRSF1B
T3 sequence: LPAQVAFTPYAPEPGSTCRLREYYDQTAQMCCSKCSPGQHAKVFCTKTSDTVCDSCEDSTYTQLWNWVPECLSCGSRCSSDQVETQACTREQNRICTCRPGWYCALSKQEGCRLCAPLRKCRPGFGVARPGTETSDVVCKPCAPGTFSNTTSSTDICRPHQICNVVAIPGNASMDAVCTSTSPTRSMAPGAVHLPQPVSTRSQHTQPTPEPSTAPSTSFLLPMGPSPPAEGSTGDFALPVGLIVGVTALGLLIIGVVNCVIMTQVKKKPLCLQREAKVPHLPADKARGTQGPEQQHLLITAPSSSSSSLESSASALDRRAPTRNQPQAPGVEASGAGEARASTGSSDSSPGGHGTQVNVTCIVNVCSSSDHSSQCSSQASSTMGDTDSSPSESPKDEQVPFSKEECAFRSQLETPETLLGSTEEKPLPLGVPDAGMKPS

T4: Cynomolgus TNFR2 (Macaca fascicularis (cynomolgus monkey), UniProt P20333 26-461 (human entry))
T4 construct: Expressed on transiently transfected HEK293 cells; also called TNFR2-cyno; monkey TNFR2
T4 chain: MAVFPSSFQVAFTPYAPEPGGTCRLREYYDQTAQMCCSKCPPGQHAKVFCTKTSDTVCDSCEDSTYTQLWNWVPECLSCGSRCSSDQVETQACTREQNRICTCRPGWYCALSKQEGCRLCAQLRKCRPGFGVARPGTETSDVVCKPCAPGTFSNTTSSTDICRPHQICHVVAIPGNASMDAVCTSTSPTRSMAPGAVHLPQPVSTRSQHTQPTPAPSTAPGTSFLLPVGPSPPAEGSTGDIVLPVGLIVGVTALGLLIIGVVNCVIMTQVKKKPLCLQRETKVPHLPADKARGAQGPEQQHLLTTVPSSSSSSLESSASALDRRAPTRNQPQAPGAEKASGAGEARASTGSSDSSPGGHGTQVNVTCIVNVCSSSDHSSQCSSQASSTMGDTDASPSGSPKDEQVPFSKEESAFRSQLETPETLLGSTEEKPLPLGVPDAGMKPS


Assays:
[1] = target: T1, Extracellular domain of TNFR1 with a …; experiment: binding of the GpL tagged protein to HEK293 cells transiently transfected with the TNFR1 extracellular domain with GPI anchor; empty-vector cells as non-specific binding
Method: (§1) HEK293 cells were transiently transfected with: (i) a TNFR2 expression plasmid; (ii) an expression plasmid encoding the extracellular domain of TNFR1 with a GPI anchor domain; or (iii) empty vector (ev). Next day, the indicated GpL tagged binding molecules were added at the indicated concentration to the cells. After incubation for 1 hour at 37° C., followed by two washes with PBS, the remaining cell bound GpL activity was determined.
(§2) An experiment was performed to illustrate the ability of the binding molecules provided to bind TNFR2, but not TNFR1. HEK293 cells were transiently transfected with: (i) a TNFR2 expression plasmid; (ii) an expression plasmid encoding the extracellular domain of TNFR1 with a GPI anchor domain; or (iii) empty vector (ev). […] The proteins indicated in FIG. 27 were added at the indicated concentration to the HEK293 cells. After incubation for 1 hour at 37° C., followed by two washes with PBS, the remaining cell bound GpL activity was determined.

Murine TNFR2 [2] = target: T2, Murine TNFR2; experiment: equilibrium binding of the GpL fusion protein (label C27-IgG1-LC:GpL) to HEK293 cells transiently transfected with murine TNFR2; empty-vector cells as non-specific binding
Method: (§3) FIG. 14—Binding of TNFR2-specific antibodies to human, murine and cynomolgus TNFR2. HEK293 cells were transiently transfected with human, murine and cynomologus TNFR2 or empty vector. Equilibrium binding of the indicated anti-TNFR2 antibody GpL fusion proteins were then determined at 37° C. Binding to empty vector transfected cells was determined to obtain unspecific binding values.
(§4) Affinity (KD-values) of TNFR2-targeting antibodies to human, cynomolgus monkey, and murine TNFR2 was evaluated by cellular equilibrium binding studies. Therefore, HEK293T cells were transiently transfected with human, cynomolgus or mouse TNFR2 encoding expression plasmids or an empty vector control (EV) using the PEI method. […] Cell associated luciferase activity (RLU; relative light units) was detected with LUmo luminometer (anthos Mikrosysteme GmbH, Friesoythe, Germany) directly after adding 1.5 μM of the substrate coelenterazin (Carl Roth, Karlsruhe, Germany).
(§5) The binding properties of anti-TNFR2 antibodies from different clones were assessed. […] Equilibrium binding of the indicated anti-TNFR2 antibody GpL fusion proteins was then determined at 37° C. Binding to empty vector transfected cells was determined to obtain unspecific binding values.

Human TNFR2 [3] = target: T3, Human TNFR2; experiment: binding of the GpL tagged protein to HEK293 cells transiently transfected with TNFR2, 1 h 37 °C; empty-vector cells as non-specific binding
Method: as §1, §2

Human TNFR2 [4] = target: T3, Human TNFR2; experiment: equilibrium binding of the GpL fusion protein to HeLa-TNFR2 cells, 37 °C; unspecific binding on HeLa cells subtracted; cell-bound luciferase
Method: FIG. 11—Binding properties of TNFR2-specific antibodies. (A) Equilibrium binding of the indicated anti-TNFR2 antibody GpL fusion proteins to cell expressed human TNFR2 at 37° C. (B) HeLa-TNFR2 cells were pretreated with the indicated amounts of anti-TNFR2 antibodies or remained untreated. […] Binding of the various constructs to untransfected HeLa cells was analyzed to obtain unspecific binding values.
Affinity of TNFR2-specific antibodies and antibody variants were also evaluated with HeLa cells and HeLa cells stably expressing human TNFR2. HeLa and HeLa-TNFR2 cells were seeded out in 24-well plates. Next day, the cells were challenged with the indicated concentrations of GpL-labelled TNFR2 antibodies for 1 hour at 37° C. To eliminate the unbound antibodies, the cells were washed 10 times with ice-cold PBS. The cells were then scratched and collected in 50 μl of medium (RPMI, 0.5% FCS) and transferred to black 96-well plates for measurement as mentioned above. The specific binding of different TNFR2-specific antibodies/antibody variants was calculated by subtracting the unspecific binding (values obtained from HeLa cells) from total binding (obtained from HeLa-TNFR2). The resulting values were fitted using the non-linear regression analysis option of GraphPad Prism 5.

Cynomolgus TNFR2 = target: T4, Cynomolgus TNFR2; experiment: equilibrium binding of the GpL fusion protein to HEK293 cells transiently transfected with cynomolgus TNFR2, 37 °C; empty-vector cells as non-specific binding
Method: as §3, §4, §5

Murine TNFR2 [5] = target: T2, Murine TNFR2; experiment: equilibrium binding of the GpL fusion protein (label C9-IgG1-LC:GpL) to HEK293 cells transiently transfected with murine TNFR2; empty-vector cells as non-specific binding
Method: as §3, §4, §5

binding result [1]	binding result (Murine TNFR2 [2])	Kd (Human TNFR2 [3]) [µg/mL]	Bmax (Human TNFR2 [4]) [kRLU]	Kd (Human TNFR2 [4]) [µg/mL]	Kd (Cynomolgus TNFR2) [µg/mL]	binding result (Murine TNFR2 [5])	Binder
no binding (tested: 750 ng/ml)	no binding (tested: 1000 ng/ml)						C27-IgG1(N297A)-LC:GpL (antibody, copies: 2 + 2) light: EVKLVPRQLDYKDDDDKELNIVMTQSPKSLSMSVGERVTLNCKASENVKTYVSWYQQKPEQSPKLLIYGASNRYTGVPDRFTGSGSATDFTLTISSVQAEDLADYHCGQSYSYPFTFGAGTKLERKGSEIKRTVAAPSVFIFPPSDEQLKSGTASVVCLLNNFYPREAKVQWKVDNALQSGNSQESVTEQDSKDSTYSLSSTLTLSKADYEKHKVYACEVTHQGLSSPVTKSFNRGECLEKPTENNEDFNIVAVASNFATTDLDADRGKLPGKKLPLEVLKEMEANARKAGCTRGCLICLSHIKCTPKMKKFIPGRCHTYEGDKESAQGGIGEAIVDIPEIPGFKDLEPMEQFIAQVDLCVDCTTGCLKGLANVQCSDLLKKWLPQRCATFASKIQGQVDKIKGAGGD heavy: not shown
no binding (tested: 750 ng/ml)		0.13	1000	0.22	1.1	no binding (tested: 1500 ng/ml)	C9-IgG1(N297A)-LC:GpL (antibody, copies: 2 + 2) light: EVKLVPRQLDYKDDDDKELQIVLTQSPAIMSASPGEKVTITCSASSSVSYMHWFQQKPGTSPKLWIYSTSNLASGVPARFSGSGSGTSYSLTISRMEAEDAATYYCQQRSSYPPTFGGGTKLEIKGSEIKRTVAAPSVFIFPPSDEQLKSGTASVVCLLNNFYPREAKVQWKVDNALQSGNSQESVTEQDSKDSTYSLSSTLTLSKADYEKHKVYACEVTHQGLSSPVTKSFNRGECLEKPTENNEDFNIVAVASNFATTDLDADRGKLPGKKLPLEVLKEMEANARKAGCTRGCLICLSHIKCTPKMKKFIPGRCHTYEGDKESAQGGIGEAIVDIPEIPGFKDLEPMEQFIAQVDLCVDCTTGCLKGLANVQCSDLLKKWLPQRCATFASKIQGQVDKIKGAGGD heavy: not shown
